According to patent publication US20190177408A1 (SUZHOU CONNECT BIOPHARMACEUTICALS, published 2019):
Like-named read-outs stand apart in the source and are kept apart here.

T1: IL-4Rα on TF-1 cells (human, UniProt P24394 26-825)
T1 sequence (looked up): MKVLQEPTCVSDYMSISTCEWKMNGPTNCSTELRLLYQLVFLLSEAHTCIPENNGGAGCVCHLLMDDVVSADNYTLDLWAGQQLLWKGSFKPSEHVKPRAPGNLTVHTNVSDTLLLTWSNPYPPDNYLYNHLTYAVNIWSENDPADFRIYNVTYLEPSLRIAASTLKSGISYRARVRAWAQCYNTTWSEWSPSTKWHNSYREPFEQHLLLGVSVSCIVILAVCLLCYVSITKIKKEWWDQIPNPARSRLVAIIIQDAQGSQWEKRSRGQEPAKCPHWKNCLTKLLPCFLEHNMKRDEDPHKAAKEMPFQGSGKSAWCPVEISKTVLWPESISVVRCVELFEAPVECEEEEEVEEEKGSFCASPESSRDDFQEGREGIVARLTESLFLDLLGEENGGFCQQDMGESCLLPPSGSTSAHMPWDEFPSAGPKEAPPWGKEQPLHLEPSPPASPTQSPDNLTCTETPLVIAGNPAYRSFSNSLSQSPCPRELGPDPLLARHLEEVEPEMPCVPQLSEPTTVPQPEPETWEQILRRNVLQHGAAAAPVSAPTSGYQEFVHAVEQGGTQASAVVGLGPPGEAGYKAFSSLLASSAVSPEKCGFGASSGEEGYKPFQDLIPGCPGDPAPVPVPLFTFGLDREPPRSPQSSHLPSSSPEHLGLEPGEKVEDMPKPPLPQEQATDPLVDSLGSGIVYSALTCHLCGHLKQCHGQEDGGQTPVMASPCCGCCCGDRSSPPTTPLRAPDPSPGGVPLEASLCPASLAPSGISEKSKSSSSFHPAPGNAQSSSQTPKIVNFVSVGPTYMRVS

T2: human soluble IL-4Rα (sIL-4Rα) (human, UniProt P24394 26-232)
T2 construct: Bought reagent (PEPRO TECH, Catalog Number 200-04R); also called shIL-4Rα; soluble hIL-4 Rα
T2 sequence: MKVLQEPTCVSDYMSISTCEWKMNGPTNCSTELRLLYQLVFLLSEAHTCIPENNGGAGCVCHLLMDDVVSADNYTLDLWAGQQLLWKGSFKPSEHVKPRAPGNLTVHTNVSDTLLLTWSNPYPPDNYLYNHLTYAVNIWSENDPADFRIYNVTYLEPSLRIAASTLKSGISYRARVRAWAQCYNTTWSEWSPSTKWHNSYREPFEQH


Columns and labels:
IL-4Rα on TF-1 cells [1] = target: T1, IL-4Rα on TF-1 cells; assay: cell-based or functional assay
[2] = target: T2, human soluble IL-4Rα (sIL-4Rα); assay: ELISA, coated sIL-4Rα, culture supernatant
Description: 100 μl of 100 μg/ml sIL-4Rα solution was added to 9.90 ml of PBS, mixed up and down, and then an antigen coating buffer of 1.0 μg/ml was obtained. The prepared antigen coating buffer was added to a 96-well ELISA plate (Corning) with a volume of 100 μl per well. The 96-well ELISA plate was incubated overnight in a refrigerator at 4° C. On the next day; the solution therein was discarded; and PBS containing 2% BSA was added to the 96-well ELISA plate row by row with a volume of 300 μl per well. The 96-well ELISA plate was incubated for 2 hours in a refrigerator at 4° C., Then the PBS containing 2% BSA was discarded and the plate was washed 3 times with PBST. Diluted antibodies to be tested were sequentially added to the corresponding wells, while the normal cell culture supernatants, as negative control samples, were added too. Three duplicate wells were made for each sample with a volume of 100 μl per well. The ELISA plate was wrapped with preservative film (or covered) and incubated for 1 h at […] in a constant temperature incubator. Subsequently, the 96-well ELISA plate was taken out, and the solution therein was discarded. After washing with PBST for 3 times, TMB solution (Solarbio, Catalog Number: PR1200) was added to the 96-well ELISA plate row by row with a volume of 100 μl per well. The 96-well ELISA plate was placed at room temperature for 5 minutes, and 2 M H2SO4 solution was added in immediately to terminate the reaction. The 96-well ELISA plate was placed in flexstation 3 (Molecular Devices), the values of OD450 were read, and the data were collected, calculated and analyzed. Results were expressed relative to the affinity of control antibody 1.

IL-4Rα on TF-1 cells [3] = target: T1, IL-4Rα on TF-1 cells; assay: cell-based or functional assay; remark: listed apart in the source
IL-4Rα on TF-1 cells [4] = target: T1, IL-4Rα on TF-1 cells; assay: cell-based or functional assay; remark: listed apart in the source

| Binder | Inhibitory rate on pro-proliferative effect of IL-4 (IL-4Rα on TF-1 cells [1]) | Inhibitory rate on pro-proliferative effect of IL-13 (IL-4Rα on TF-1 cells [1]) | OD 450/OD450Control antibody 1 [2] | Inhibitory rate on pro-proliferative effect of IL-4 (IL-4Rα on TF-1 cells [3]) | Inhibitory rate on pro-proliferative effect of IL-13 (IL-4Rα on TF-1 cells [3]) | IC50 (ng/ml) (Inhibition on the proliferation of IL-4) (IL-4Rα on TF-1 cells [4]) [ng/mL] | IC50 (ng/ml) (Inhibition on the proliferation of IL-13) (IL-4Rα on TF-1 cells [4]) [ng/mL] |
| --- | --- | --- | --- | --- | --- | --- | --- |
| L1001H1000 (antibody, V domains shown, human kappa) VH: EVQLVQSGGGLVHPGGSLRLSCAGSGFTFSRNAMFWVRQAPGKGLEWVSGIGTGGATNYADSVKGRFTISRDNAKNSLYLQMNSLRAEDMAVYYCARGRYYFDYWGQGTLVTVSS VL: EIVLTQSPGTLSLSPGERATLSCRASQSVSNSYLAWYQQKPGQAPRLLIYGASSRAPGIPDRFSGSGSGTDFTLTISRLEPEDFAVYYCQQYDHSAGWTFGQGTKVEIK | 0.98 | 0.85 | 1.56 | – | – | – | – |
| L1024H1031 (antibody, V domains shown, human kappa) VH: EVQLVESGGGLVQPGGSLRLSCAASGFTFSRNAMFWVRQAPGKGLEWVSGIGTGGATSYADSVKGRFTISRDNAKNSLYLQMNSLRAEDTAVYYCARGRYYFDYWGQGTLVTVSS VL: EIVLTQSPGTLSLSPGERATLSCRASQSVSNSYLAWYQQKPGQAPRLLIFGASSRAPGIPDRFSGSGSGTDFTLTISRLEPEDFAVYYCQQYDHSAGWTFGQGTKVEIK | 1.01 | 0.94 | 0.9 | – | – | – | – |
| L1022H1000 (antibody, V domains shown, human kappa) VH: EVQLVQSGGGLVHPGGSLRLSCAGSGFTFSRNAMFWVRQAPGKGLEWVSGIGTGGATNYADSVKGRFTISRDNAKNSLYLQMNSLRAEDMAVYYCARGRYYFDYWGQGTLVTVSS VL: EIVLTQSPGTLSLSPGERATLSCRASQSVSNSYLAWYQQKPGQAPRLLIYGASSRATGIPDRFSGSGSGTDFTLTISRLEPEDFAVYYCQQYDHSAGWTFGQGTKVEIK | – | – | 0.16 | -0.05 | 0.02 | – | – |
| L1021H1016 (antibody, V domains shown, human kappa) VH: EVQLVQSGGGLVHPGGSLRLSCAGSGFTFSRNAMFWVRQAPGKGLEWVSGIGTGGATNYADSVKGRFTISRDNAKNSLYLQMNSLRAEDMAVYYCARGRYYFPWWGQGTLVTVSS VL: EIVLTQSPGTLSLSPGERATLSCRASQSVSSSYLAWYQQKPGQAPRLLIFGASSRAPGIPDRFSGSGSGTDFTLTISRLEPEDFAVYYCQQYDHSAGWTFGQGTKVEIK | 1 | 0.94 | 0.63 | – | – | 28.5 | 69.7 |
| L1021H1007 (antibody, V domains shown, human kappa) VH: EVQLVQSGGGLVHPGGSLRLSCAGSGFTFSRNAMFWVRQAPGKGLEWVSGIGTGGATSYADSVKGRFTISRDNAKNSLYLQMNSLRAEDMAVYYCARGRYYFDYWGQGTLVTVSS VL: EIVLTQSPGTLSLSPGERATLSCRASQSVSSSYLAWYQQKPGQAPRLLIFGASSRAPGIPDRFSGSGSGTDFTLTISRLEPEDFAVYYCQQYDHSAGWTFGQGTKVEIK | 1 | 0.86 | 0.44 | – | – | – | – |
| L1019H1000 (antibody, V domains shown, human kappa) VH: EVQLVQSGGGLVHPGGSLRLSCAGSGFTFSRNAMFWVRQAPGKGLEWVSGIGTGGATNYADSVKGRFTISRDNAKNSLYLQMNSLRAEDMAVYYCARGRYYFDYWGQGTLVTVSS VL: EIVLTQSPGTLSLSPGERATLSCRASQSVSNSYLAWYQQKPGQAPRLLIFGASSRATGIPDRFSGSGSGTDFTLTISRLEPEDFAVYYCQQYDHSAGWTFGQGTKVEIK | – | – | 1.79 | 0.72 | 0.49 | – | – |
| L1023H1000 (antibody, V domains shown) VH: EVQLVQSGGGLVHPGGSLRLSCAGSGFTFSRNAMFWVRQAPGKGLEWVSGIGTGGATNYADSVKGRFTISRDNAKNSLYLQMNSLRAEDMAVYYCARGRYYFDYWGQGTLVTVSS VL: EIVLTQSPGTLSLSPGERATLSCRASQSVSSSYLAWYQQKPGQAPRLLIYGASSRAPGIPDRFSGSGSGTDFTLTISRLEPEDFAVYYCQQYDHSAGWTFGQGTKVEIK | – | – | – | 0.26 | 0.07 | – | – |

Next, values leading:

| Inhibitory rate on pro-proliferative effect of IL-4 (IL-4Rα on TF-1 cells [1]) | Inhibitory rate on pro-proliferative effect of IL-13 (IL-4Rα on TF-1 cells [1]) | OD 450/OD450Control antibody 1 [2] | Inhibitory rate on pro-proliferative effect of IL-4 (IL-4Rα on TF-1 cells [3]) | Inhibitory rate on pro-proliferative effect of IL-13 (IL-4Rα on TF-1 cells [3]) | IC50 (ng/ml) (Inhibition on the proliferation of IL-4) (IL-4Rα on TF-1 cells [4]) [ng/mL] | IC50 (ng/ml) (Inhibition on the proliferation of IL-13) (IL-4Rα on TF-1 cells [4]) [ng/mL] | Binder |
| --- | --- | --- | --- | --- | --- | --- | --- |
| – | – | 0.69 | 0.44 | 0.39 | – | – | L1024H1000 (antibody, V domains shown, human kappa) VH: EVQLVQSGGGLVHPGGSLRLSCAGSGFTFSRNAMFWVRQAPGKGLEWVSGIGTGGATNYADSVKGRFTISRDNAKNSLYLQMNSLRAEDMAVYYCARGRYYFDYWGQGTLVTVSS VL: EIVLTQSPGTLSLSPGERATLSCRASQSVSNSYLAWYQQKPGQAPRLLIFGASSRAPGIPDRFSGSGSGTDFTLTISRLEPEDFAVYYCQQYDHSAGWTFGQGTKVEIK |
| 1.02 | 0.92 | 1 | – | – | – | – | L1021H1029 (antibody, V domains shown, human kappa) VH: EVQLVESGGGLVQPGGSLRLSCAASGFTFSRNAMFWVRQAPGKGLEWVSGIGTGGATSYADSVKGRFTISRDNAKNSLYLQMNSLRAEDMAVYYCARGRYYFPWWGQGTLVTVSS VL: EIVLTQSPGTLSLSPGERATLSCRASQSVSSSYLAWYQQKPGQAPRLLIFGASSRAPGIPDRFSGSGSGTDFTLTISRLEPEDFAVYYCQQYDHSAGWTFGQGTKVEIK |
| 0.95 | 0.78 | 2.42 | – | – | – | – | L1021H1000 (antibody, V domains shown, human kappa) VH: EVQLVQSGGGLVHPGGSLRLSCAGSGFTFSRNAMFWVRQAPGKGLEWVSGIGTGGATNYADSVKGRFTISRDNAKNSLYLQMNSLRAEDMAVYYCARGRYYFDYWGQGTLVTVSS VL: EIVLTQSPGTLSLSPGERATLSCRASQSVSSSYLAWYQQKPGQAPRLLIFGASSRAPGIPDRFSGSGSGTDFTLTISRLEPEDFAVYYCQQYDHSAGWTFGQGTKVEIK |
| – | – | 0.23 | 0.86 | 0.7 | – | – | L1024H1007 (antibody, V domains shown, human kappa) VH: EVQLVQSGGGLVHPGGSLRLSCAGSGFTFSRNAMFWVRQAPGKGLEWVSGIGTGGATSYADSVKGRFTISRDNAKNSLYLQMNSLRAEDMAVYYCARGRYYFDYWGQGTLVTVSS VL: EIVLTQSPGTLSLSPGERATLSCRASQSVSNSYLAWYQQKPGQAPRLLIFGASSRAPGIPDRFSGSGSGTDFTLTISRLEPEDFAVYYCQQYDHSAGWTFGQGTKVEIK |
| 1.02 | 0.94 | 0.29 | – | – | – | – | L1021H1027 (antibody, V domains shown, human kappa) VH: EVQLVESGGGLVHPGGSLRLSCAASGFTFSRNAMFWVRQAPGKGLEWVSGIGTGGATSYADSVKGRFTISRDNAKNSLYLQMNSLRAEDTAVYYCARGRYYFPWWGQGTLVTVSS VL: EIVLTQSPGTLSLSPGERATLSCRASQSVSSSYLAWYQQKPGQAPRLLIFGASSRAPGIPDRFSGSGSGTDFTLTISRLEPEDFAVYYCQQYDHSAGWTFGQGTKVEIK |
